Data from patent EP4725966A1, “HUMAN EPIDERMAL GROWTH FACTOR 3 ANTIBODY, PREPARATION METHOD THEREFOR, AND USE THEREOF” (priority 2023, dated 2024).

Columns and labels:
[1] = tested on: A375 cells overexpressing human HER3; assay: ADC cytotoxicity, CellTiter-Glo; assay type: cell-based; conditions: Example 21, FIG. 13
[2] = tested on: DiFi tumor; assay: Tumor inhibition in DiFi tumor-bearing mice; assay type: in vivo, Female SCID mice
Experimental: (§1) The anti-tumor efficacy of hHE4-G1W-DXd and cHE5-G1W-DXd was evaluated in DiFi tumor-bearing mice. Female SCID mice were subcutaneously injected with DiFi cells in the dorsal region to establish the xenograft model. After tumor establishment, mice were randomly divided into nine groups and treated once per week for three weeks. Three groups served as negative controls: one group received PBS, and two groups received IgG-DXd at low dose (3 mg/kg) and high dose (6 mg/kg), respectively. Experimental groups were administered with hHE4-G1W-DXd, cHE5-G1W-DXd, or patritumab-DXd at 3 mg/kg or 6 mg/kg. The average Dxd-to-antibody ratio was 8. Mouse body weights and tumor volumes were measured.

[3] = tested on: SW620 tumor; assay: Tumor inhibition in SW620 tumor-bearing mice; assay type: in vivo, Female SCID mice; conditions: for tumor growth: single dose, FIG. 14
Experimental: as §1, with “SW620” for “DiFi”, “with a single dose.” for “once per week for three weeks.”

[4] = tested on: HER3-overexpressing A375 cells; assay: Cell imaging of internalization; assay type: cell-based; conditions: 100 nM, FIG. 11
Experimental: A cell imaging microplate detection system was used to monitor the internalization of hHE4-G1W, hHE4-G1W-DXd, patritumab, and patritumab-DXd after binding to HER3 on the surface of A375 tumor cells. hHE4-G1W, hHE4-G1W-DXd, patritumab, and patritumab-DXd (each 100 nM) were incubated with HER3-overexpressing A375 cells at 4°C for 30 minutes, respectively. Unbound antibodies were removed by washing, and PE-labeled goat anti-human Fc secondary antibody (Jackson) was added. The mixture was incubated at 4°C for 30 minutes, and then the unbound secondary antibody was removed by washing. When the antibodies were bound to the surface of A375 cells and had not yet undergone internalization, these samples were designated as the 0h samples. Fluorescence images were acquired using a Biotek Cytation 1 imaging reader. Cells were then incubated at 37°C for 3 hours and imaged again.

[5] = tested on: human HER3-overexpressing JIMT-1 cells; assay: ADC cytotoxicity; assay type: cell-based; conditions: FIG. 13
Experimental: (§2) A375 and OVCAR3 cells were seeded in 96-well plates at 5,000 cells per well, and gradient-diluted ADCs (cHE4-G1W-DXd, cHE5-G1W-DXd, cHE7-G1W-DXd, patritumab-DXd, and IgG-DXd) were added. After incubation at 37°C for 5 days, cell viability was measured using CellTiter-Glo (Promega) to evaluate cytotoxicity of the ADCs.
(§3) The cytotoxicity of antibody-drug conjugates based on hHE4-G1W against HER3-expressing HCC1569, A375, and JIMT-1 tumor cells was tested. Antibody-drug conjugates were prepared as described in Example 11. Hydrophobic interaction chromatography indicated the antibody-to-Dxd ratios for cHE4-G1W-DXd, hHE4-G1W-DXd, patritumab-DXd, and negative control IgG-DXd were 1:7, 1:8, 1:7.8, and 1:8, respectively.

[6] = tested on: HER3-expressing HCC1569 cells; assay: ADC cytotoxicity; assay type: cell-based; conditions: FIG. 13
Experimental: as §2, §3

B1: hHE4-G1W-DXd (conjugate)
heavy: QVQLVESGGGLVKPGGSLRLSCAASGFTFSSYVMSWVRQAPGKGLEWVATISDGDSSTYYADSVKGRFTISRDNAKNSLYLQMNSLRAEDTAVYYCARDKGHGYDEGAFVYWGQGTLVTVSS
light: DIQMTQSPSSLSASVGDRVTITCRASENIYSYLAWYQQKPGKAPKLLIYNAKTLAEGVPSRFSGSGSGTDFTLTISSLQPEDFATYYCQNHYGTPYTFGQGTKLEIKR
modifications: left off: a dimerising Fc or GST
- cytotoxicity against A375 cells [1]: significant cytotoxicity
- tumor inhibition compared with patritumab-DXd ([2]; low dose of 3 mg/kg, once per week for three weeks): superior tumor inhibition compared with patritumab-DXd
- tumor inhibition compared with patritumab-DXd ([2]; overall conclusion, DiFi): equivalent or improved tumor inhibition against DiFi tumors compared with patritumab-DXd
- tumor growth ([3]; 3 mg/kg): prevented tumor growth
- tumor growth ([3]; 6 mg/kg): complete tumor regression in one mouse
- tumor inhibition compared with patritumab-DXd ([3]; overall conclusion, SW620): superior tumor inhibition against SW620 tumor compared with patritumab-DXd
- binding to HER3 on the surface of A375 cells ([4]; 0 hour): bound to HER3 expressed on the cell surface
- internalization into A375 cells ([4]; after 3 hours at 37°C): internalized into the A375 cells
- cytotoxicity against JIMT-1 cells [5]: significant cytotoxicity
- cytotoxicity compared with patritumab-DXd ([5]; JIMT-1 cells): superior cytotoxicity compared with patritumab-DXd
- cytotoxicity against HCC1569 cells [6]: significant cytotoxicity
